Patent US20070032403A1, “Crystal structure of the ITK kinase domain” (Boehringer Ingelheim Pharmaceuticals, Inc., priority 2003, published 2007)

How the values were obtained:
[1] = target: T1, GST-ITK/KD/G354/F437Y (ITK F437Y) (Homo sapiens, UniProt Q08881, F437Y); test: Tec Family Kinase Assay (DELFIA), F437Y mutant ITK kinase domain; format: biochemical; conditions: for IC50: GST-ITK/KD/G354/F437Y mutant; for Fold Difference in IC50: ITK F437Y IC50 versus wild-type ITK IC50
T1 construct: made in house; host or cells: Spodoptera frugiperda Sf21 cells, baculovirus

[2] = target: T2, GST-ITK/KD/G354 (wild-type ITK kinase domain) (Homo sapiens, UniProt Q08881); test: Tec Family Kinase Assay (DELFIA), wild-type ITK kinase domain; format: biochemical; conditions: 15 μM ATP substrate mix
T2 construct: made in house; host or cells: Spodoptera frugiperda Sf21 cells, baculovirus

poly Glu4: Tyr1 (PGTYR) = test: Catalytic activity of ITK kinase domain constructs (kinase assay); format: biochemical; conditions: for Kinase Activity: Using 250 nM enzyme; for catalytic activity (in words): human ITK kinase domain fragments
Description: ITK is purified as a GST-fusion protein to test for catalytic activity. The kinase activity is measured using DELFIA (Dissociation Enhanced Lanthanide Fluoroimmunoassay) which utilizes europium chelate-labeled anti-phosphotyrosine antibodies to detect phosphate transfer to a random polymer, poly Glu4: Tyr1 (PGTYR). The screen utilizes the Zymark Allegro UHTS system to dispense reagents, buffers and samples for assay, and also to wash plates. The kinase assay is performed in kinase assay buffer (50 mM HEPES, pH 7.0, 25 mM MgCl2, 5 mM MnCl2, 50 mM KCl, 100 μM Na3VO4, 0.2% BSA, 0.01% CHAPS, 200 μM TCEP). Test samples initially dissolved in DMSO at 1 mg/mL, are pre-diluted for dose response (9 doses with starting final concentration of 3 μg/mL, 1 to 3 serial dilutions) with the assay buffer in 384-well polypropylene microtiter plates. […] Background wells are incubated with buffer, rather than 20 μL enzyme. The assay plates are incubated for 30 min at room temperature. Following incubation, the assay plates are washed three times with 100 μL wash buffer (50 mM Tris-HCL, pH 7.4, 150 mM NaCl, 0.05% Tween 20, 0.2% BSA). A 50 μL aliquot of europium-labeled anti-phosphotyrosine (Eu^3+-PT66, Wallac CR04-100) diluted in 50 mM Tris-HCl, pH 7.8, 150 mM NaCl, 10 μM DTPA, 0.05% Tween 40, 0.2% BSA, 0.05% BGG (1 nM final concentration) is added to each well and incubated for 30 min at room temperature. Upon completion of the incubation, the plate is washed four times with 100 μL of wash buffer and 50 μL of DELFIA Enhancement Solution (Wallac) is added to each well. After 15 min, time-resolved fluorescence is measured on the LJL's Analyst (excitation at 360 nm, emission at 620 nm, EU 400 Dichroic Mirror) after a delay time of 250 μs. An IC50 can be obtained by fitting the rates vs. compound/ligand concentration data into a simple competitive inhibitor model. Under these assay conditions, a 3-fold difference in compound potency (IC50) is considered within the variation of the assay. Preferred ligands will have an IC50<1000 nM.
A significant obstacle in the process of obtaining the 3-dimensional structure of a protein by X-ray crystallography is the identification of a protein fragment that is amenable to the formation of protein crystals of suitable quality. Since kinases often have multiple domains, one strategy that increases the likelihood of generating protein crystals of the kinase domain (catalytic) fragment has been to delete the other domains. Furthermore, by making a kinase domain fragment analogous to that of a related kinase for which a crystal structure has been determined, one may further increase the probability of generating suitable protein crystals. Using these concepts, the human ITK/KD/Q343 construct was generated. Theory predicts that a more compactly folded protein has a greater probability of producing high quality protein crystals. Therefore, the human ITK/KD/Q343 construct was subjected to limited proteolysis with trypsin to identify any fragments of the construct that are easily accessible to the protease and are thus likely to be less compactly folded. Using this strategy, the human ITK/KD/G354 and ITK/KD/S361 constructs were designed. To prioritize the three human ITK kinase domain protein fragments for crystallization trials, each was assayed for catalytic activity and for structural foldedness by circular dichroism-monitored thermal denaturation. […] Consequently, the ITK/KD/G354 construct was prioritized for structural studies since it was catalytically active and predicted to be tightly folded. To further increase the probability of obtaining suitable crystals, a murine construct (ITK/KD/G353) analogous to the human ITK/KD/G354 construct was generated. […]

[3] = Thermal denaturation of ITK constructs (circular dichroism-monitored); format: physicochemical; conditions: for Tm: 5 μM construct, pH 7.0 buffer, 230 nm, 2 to 100° C. at 0.2° C./min; for Tm comparison (in words): thermal denaturation studies
Description: Thermal denaturation experiments were performed on a Jasco J-720 spectropolarimeter equipped with a Peltier thermostatic cell holder. For each measurement, a 1 cm quartz cuvette was loaded with 5 μM ITK kinase domain construct in a pH 7.0 buffer containing 10 mM sodium phosphate, 100 mM NaCl and 1 mM TCEP. Absorbance data at 230 nm was collected as the temperature was scanned from 2 to 100° C. at a ramp rate of 0.2° C./min. The melting temperature (Tm) for each sample was calculated as the maximum deflection point of the first derivative of the melting transition using Origin (version 7.0).
A significant obstacle in the process of obtaining the 3-dimensional structure of a protein by X-ray crystallography is the identification of a protein fragment that is amenable to the formation of protein crystals of suitable quality. Since kinases often have multiple domains, one strategy that increases the likelihood of generating protein crystals of the kinase domain (catalytic) fragment has been to delete the other domains. Furthermore, by making a kinase domain fragment analogous to that of a related kinase for which a crystal structure has been determined, one may further increase the probability of generating suitable protein crystals. Using these concepts, the human ITK/KD/Q343 construct was generated. Theory predicts that a more compactly folded protein has a greater probability of producing high quality protein crystals. Therefore, the human ITK/KD/Q343 construct was subjected to limited proteolysis with trypsin to identify any fragments of the construct that are easily accessible to the protease and are thus likely to be less compactly folded. Using this strategy, the human ITK/KD/G354 and ITK/KD/S361 constructs were designed. To prioritize the three human ITK kinase domain protein fragments for crystallization trials, each was assayed for catalytic activity and for structural foldedness by circular dichroism-monitored thermal denaturation. […] Consequently, the ITK/KD/G354 construct was prioritized for structural studies since it was catalytically active and predicted to be tightly folded. To further increase the probability of obtaining suitable crystals, a murine construct (ITK/KD/G353) analogous to the human ITK/KD/G354 construct was generated. This murine ITK kinase domain construct has 3 conservative and 7 non-conservative amino acid substitutions when compared with the human ITK/KD/G354 construct which may alter the conformation or surface properties of the protein thus providing alternative opportunities for crystal formation.

T1 sequence (Q08881 with tags, fused parts or gaps F437Y): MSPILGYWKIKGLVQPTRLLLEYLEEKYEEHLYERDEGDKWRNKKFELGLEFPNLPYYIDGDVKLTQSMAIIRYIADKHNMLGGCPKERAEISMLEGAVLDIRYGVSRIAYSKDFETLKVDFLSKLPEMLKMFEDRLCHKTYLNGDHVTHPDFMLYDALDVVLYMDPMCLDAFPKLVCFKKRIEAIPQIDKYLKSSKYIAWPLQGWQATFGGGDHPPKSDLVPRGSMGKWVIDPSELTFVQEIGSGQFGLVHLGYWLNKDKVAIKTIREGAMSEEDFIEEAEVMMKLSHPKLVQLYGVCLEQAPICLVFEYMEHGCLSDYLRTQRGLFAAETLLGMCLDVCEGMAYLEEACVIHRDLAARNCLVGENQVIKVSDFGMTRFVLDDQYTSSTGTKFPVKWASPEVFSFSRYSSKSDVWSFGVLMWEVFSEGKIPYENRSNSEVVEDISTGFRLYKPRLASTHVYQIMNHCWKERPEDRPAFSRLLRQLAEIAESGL
T2 sequence (Q08881 with tags, fused parts or gaps): as the sequence (Q08881 with tags, fused parts or gaps F437Y) above, with Y311F counted along it

Row | IC50 [1] [nM] | Fold Difference in IC50 [1] | IC50 [2] [nM] | Molecule | Kinase Activity (poly Glu4: Tyr1 (PGTYR)) [Fluorescent Units] | catalytic activity (in words) (poly Glu4: Tyr1 (PGTYR)) | Tm [3] [°C] | Tm comparison (in words) [3]
1 | 160 | 10.7 | 15 | CN(C(=O)C1CCCCC1)c1ccc2c(c1)nc(NC(=O)c1ccc(C#N)cc1)n2CCCN1CCCC1=O [Compound 7] | – | – | – | –
2 | 500 | 1.1 | 440 | Cc1ccc2c(c1)nc(NC(=O)c1ccc(C#N)cc1)n2CCC(N)=O [Compound 3] | – | – | – | –
3 | 1200 | 2.6 | 460 | CNc1ccc2c(c1)nc(NC(=O)c1ccc(C#N)cc1)n2CCC(N)=O [Compound 1] | – | – | – | –
4 | – | – | – | ITK/KD/Q343: human ITK kinase domain fragment comprising ITK residues 343-620 (SEQ ID NO. 9) (protein, listed as Homo sapiens) GSMQKAPVTAGLRYGKWVIDPSELTFVQEIGSGQFGLVHLGYWLNKDKVAIKTIREGAMSEEDFIEEAEVMMKLSHPKLVQLYGVCLEQAPICLVFEFMEHGCLSDYLRTQRGLFAAETLLGMCLDVCEGMAYLEEACVIHRDLAARNCLVGENQVIKVSDFGMTRFVLDDQYTSSTGTKFPVKWASPEVFSFSRYSSKSDVWSFGVLMWEVFSEGKIPYENRSNSEVVEDISTGFRLYKPRLASTHVYQIMNHCWKERPEDRPAFSRLLRQLAEIAESGL | 2000 | showed significant catalytic activity | 50.0 | –
5 | – | – | – | ITK/KD/S361: human ITK kinase domain fragment comprising ITK residues 361-620 (SEQ ID NO. 12) (protein, listed as Homo sapiens) GSMSELTFVQEIGSGQFGLVHLGYWLNKDKVAIKTIREGAMSEEDFIEEAEVMMKLSHPKLVQLYGVCLEQAPICLVFEFMEHGCLSDYLRTQRGLFAAETLLGMCLDVCEGMAYLEEACVIHRDLAARNCLVGENQVIKVSDFGMTRFVLDDQYTSSTGTKFPVKWASPEVFSFSRYSSKSDVWSFGVLMWEVFSEGKIPYENRSNSEVVEDISTGFRLYKPRLASTHVYQIMNHCWKERPEDRPAFSRLLRQLAEIAESGL | 30 | did not possess activity above background levels | 72.8 | highest Tm
6 | – | – | – | ITK/KD/G354: human ITK kinase domain fragment comprising ITK residues 354-620 (SEQ ID NO. 1) (protein, listed as Homo sapiens) GSMGKWVIDPSELTFVQEIGSGQFGLVHLGYWLNKDKVAIKTIREGAMSEEDFIEEAEVMMKLSHPKLVQLYGVCLEQAPICLVFEFMEHGCLSDYLRTQRGLFAAETLLGMCLDVCEGMAYLEEACVIHRDLAARNCLVGENQVIKVSDFGMTRFVLDDQYTSSTGTKFPVKWASPEVFSFSRYSSKSDVWSFGVLMWEVFSEGKIPYENRSNSEVVEDISTGFRLYKPRLASTHVYQIMNHCWKERPEDRPAFSRLLRQLAEIAESGL | 910 | showed significant catalytic activity | 67.2 | higher Tm than ITK/KD/Q343
